Here are results for one molecule from paper PMC3551999.

One series concerns the target TBP (human, UniProt P20226 1-339). The series can be described thus: smFRET.
The target in a further series is TBP;TFIIA (human;human, UniProt P20226;P52655;P52657 1-339;1-376;1-109, |). The series is described as follows: smFRET.
Chain of TBP;TFIIA (P20226 whole entry, chain 1 of 3): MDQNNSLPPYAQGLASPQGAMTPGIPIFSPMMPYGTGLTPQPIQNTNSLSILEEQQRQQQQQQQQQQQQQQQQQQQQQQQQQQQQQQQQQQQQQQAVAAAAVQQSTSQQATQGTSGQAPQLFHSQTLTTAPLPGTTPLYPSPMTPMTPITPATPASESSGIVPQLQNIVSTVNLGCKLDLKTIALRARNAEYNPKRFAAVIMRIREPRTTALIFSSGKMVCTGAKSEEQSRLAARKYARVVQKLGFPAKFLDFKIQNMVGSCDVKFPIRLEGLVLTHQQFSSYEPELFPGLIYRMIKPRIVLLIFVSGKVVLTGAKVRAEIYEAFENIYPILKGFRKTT
Chain of TBP;TFIIA (P52655 whole entry, chain 2 of 3): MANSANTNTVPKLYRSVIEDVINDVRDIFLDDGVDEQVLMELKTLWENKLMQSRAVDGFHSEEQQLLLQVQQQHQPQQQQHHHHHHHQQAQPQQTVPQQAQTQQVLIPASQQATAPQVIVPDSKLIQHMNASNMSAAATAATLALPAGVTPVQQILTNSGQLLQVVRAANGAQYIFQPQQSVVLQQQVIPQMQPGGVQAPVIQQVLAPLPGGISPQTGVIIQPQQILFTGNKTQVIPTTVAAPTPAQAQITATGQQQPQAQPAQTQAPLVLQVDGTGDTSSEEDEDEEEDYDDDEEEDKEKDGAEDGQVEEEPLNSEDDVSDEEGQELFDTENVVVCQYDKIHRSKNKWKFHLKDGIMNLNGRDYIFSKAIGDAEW
Chain of TBP;TFIIA (P52657 whole entry, chain 3 of 3): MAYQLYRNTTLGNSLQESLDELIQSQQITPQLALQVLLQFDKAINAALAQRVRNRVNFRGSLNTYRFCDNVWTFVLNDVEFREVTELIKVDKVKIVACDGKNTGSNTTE

Chain of TBP (P20226 whole entry): as the sequence (P20226 whole entry, chain 1 of 3) above

B1: TATA(A3) smFRET construct (mixed)
DNA 1: CAGGCTAAAAAAGGGACG
DNA 2: CGTCCCTTTTTTAGCCTGCACCACCACCACCACCACCA
DNA 3: TGGTGGTGGTGGTGGTGGT
For the molecule B1, the binding result in the series with TBP and in the series with TBP;TFIIA was “binds” in each case.
